# Measurements from patent publication US20240025993A1 (Novartis, published 2024).
# Changes are numbered by the printed parent chain. Names and notes keep the numbering of the source.
# T1: human CD19 (human, UniProt P15391 20-556)
# T1 construct: whole, on cells; also called huCD19; hCD19
# T1 sequence (looked up): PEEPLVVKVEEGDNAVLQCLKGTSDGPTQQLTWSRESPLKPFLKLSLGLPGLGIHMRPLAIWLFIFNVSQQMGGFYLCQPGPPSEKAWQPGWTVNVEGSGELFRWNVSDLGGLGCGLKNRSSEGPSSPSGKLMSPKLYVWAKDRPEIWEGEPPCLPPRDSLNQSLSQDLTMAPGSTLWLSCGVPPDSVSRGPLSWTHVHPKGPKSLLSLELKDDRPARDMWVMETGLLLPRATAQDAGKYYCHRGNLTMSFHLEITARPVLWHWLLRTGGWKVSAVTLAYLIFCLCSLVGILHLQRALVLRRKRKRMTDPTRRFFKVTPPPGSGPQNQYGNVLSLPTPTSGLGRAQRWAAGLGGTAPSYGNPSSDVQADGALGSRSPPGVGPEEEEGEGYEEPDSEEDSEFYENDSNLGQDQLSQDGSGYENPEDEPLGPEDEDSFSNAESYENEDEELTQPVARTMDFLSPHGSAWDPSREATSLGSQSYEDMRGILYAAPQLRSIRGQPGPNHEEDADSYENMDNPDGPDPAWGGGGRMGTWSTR
# B1: Anti-CD19-CD3 / CD58 trispecific antibody, DANAPA IgG1 Fc (Table 33) (other)
# heavy: QVQLVQSGAEVKKPGASVKVSCKASGYTFTTYWIQWVRQAPGQRLEWMGAVYPGDADTRYTQKFQGRVTLTADRSASTAYMELSSLRSEDTAVYYCGRDAGLEYYALDYWGQGTLVTVSSASTKGPSVFPLAPSSKSTSGGTAALGCLVKDYFPEPVTVSWNSGALTSGVHTFPAVLQSSGLYSLSSVVTVPSSSLGTQTYICNVNHKPSNTKVDKRVEPKSCGGGGSGGGGSEVQLVESGGGLVQPGGSLKLSCAASGFTFNTYAMNWVRQASGKGLEWVGRIRSKYNNYATYYADSVKDRFTISRDDSKSTLYLQMNSLKTEDTAVYYCVRHGNFGNSYVSWFAYWGQGTLVTVSSGGGGSGGGGSGGGGSGGGGSQAVVTQEPSLTVSPGGTVTLTCRSSTGAVTTSNYANWVQQKPGQAPRGLIGGTNKRAPWTPARFSGSLLGDKAALTLSGAQPEDEAEYFCALWYSNLWVFGGGTKLTVLGGGGSDKTHTCPPCPAPELLGGPSVFLFPPKPKDTLMISRTPEVTCVVVAVSHEDPEVKFNWYVDGVEVHNAKTKPREEQYASTYRVVSVLTVLHQDWLNGKEYKCKVSNKALAAPIEKTISKAKGQPREPQVCTLPPSREEMTKNQVSLSCAVKGFYPSDIAVEWESNGQPENNYKTTPPVLDSDGSFFLVSKLTVDKSRWQQGNVFSCSVMHEALHNHYTQKSLSLSPGK
# chain: SQQIYGVVYGNVTFHVPSNVPLKEVLWKKQKDKVAELENSEFRAFSSFKNRVYLDTVSGSLTIYNLTSSDEDEYEMESPNITDTMKFFLYVLESGGGGSDKTHTCPPCPAPELLGGPSVFLFPPKPKDTLMISRTPEVTCVVVAVSHEDPEVKFNWYVDGVEVHNAKTKPREEQYASTYRVVSVLTVLHQDWLNGKEYKCKVSNKALAAPIEKTISKAKGQPREPQVYTLPPCREEMTKNQVSLWCLVKGFYPSDIAVEWESNGQPENNYKTTPPVLDSDGSFFLYSKLTVDKSRWQQGNVFSCSVMHEALHNHYTQKSLSLSPGK
# light: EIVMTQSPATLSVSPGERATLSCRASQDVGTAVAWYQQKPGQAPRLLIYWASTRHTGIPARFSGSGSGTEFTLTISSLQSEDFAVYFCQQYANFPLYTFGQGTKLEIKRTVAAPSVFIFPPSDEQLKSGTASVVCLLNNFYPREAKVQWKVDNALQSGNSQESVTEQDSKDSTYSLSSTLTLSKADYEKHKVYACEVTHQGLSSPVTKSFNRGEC
# B2: Anti-CD19-CD3 / CD58 trispecific antibody, GADAPASK IgG1 Fc (Table 33) (other)
# heavy: B1 heavy with G509A, S539K, A569N
# chain: B1 chain with G116A, S146K, A176N
# light: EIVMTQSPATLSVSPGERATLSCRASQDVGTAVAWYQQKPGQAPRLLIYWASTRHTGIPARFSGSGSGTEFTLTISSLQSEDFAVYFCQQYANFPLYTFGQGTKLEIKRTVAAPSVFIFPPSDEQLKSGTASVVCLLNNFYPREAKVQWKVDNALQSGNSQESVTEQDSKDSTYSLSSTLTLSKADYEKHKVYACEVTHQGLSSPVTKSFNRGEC
# B3: Anti-CD19-CD3 / CD58 trispecific antibody, LALASKPA IgG1 Fc (Table 33) (other)
# heavy: B1 heavy with L506A, L507A, A537D, S539K, A569N
# chain: B1 chain with L113A, L114A, A144D, S146K, A176N
# light: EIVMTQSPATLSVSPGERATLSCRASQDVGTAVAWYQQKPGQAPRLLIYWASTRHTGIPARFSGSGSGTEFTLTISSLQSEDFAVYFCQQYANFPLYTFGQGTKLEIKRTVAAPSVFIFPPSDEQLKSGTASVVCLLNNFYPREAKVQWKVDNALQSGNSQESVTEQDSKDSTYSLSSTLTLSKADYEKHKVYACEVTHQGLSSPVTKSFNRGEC
# B4: Anti-CD3 human IgG1 antibody, wild type Fc (antibody)
# heavy: not shown
# light: QAVVTQEPSLTVSPGGTVTLTCRSSTGAVTTSNYANWVQQKPGQAPRGLIGGTNKRAPWTPARFSGSLLGDKAALTLSGAQPEDEAEYFCALWYSNLWVFGGGTKLTVLGQPKAAPSVTLFPPSSEELQANKATLVCLISDFYPGAVTVAWKADSSPVKAGVETTTPSKQSNNKYAASSYLSLTPEQWKSHRSYSCQVTHEGSTVEKTVAPTECS
# notes: also called WT; WT IgG1
# B5: Anti-CD3 human IgG1 antibody, LALAGA Fc variant (L234A/L235A/G237A) (antibody)
# heavy: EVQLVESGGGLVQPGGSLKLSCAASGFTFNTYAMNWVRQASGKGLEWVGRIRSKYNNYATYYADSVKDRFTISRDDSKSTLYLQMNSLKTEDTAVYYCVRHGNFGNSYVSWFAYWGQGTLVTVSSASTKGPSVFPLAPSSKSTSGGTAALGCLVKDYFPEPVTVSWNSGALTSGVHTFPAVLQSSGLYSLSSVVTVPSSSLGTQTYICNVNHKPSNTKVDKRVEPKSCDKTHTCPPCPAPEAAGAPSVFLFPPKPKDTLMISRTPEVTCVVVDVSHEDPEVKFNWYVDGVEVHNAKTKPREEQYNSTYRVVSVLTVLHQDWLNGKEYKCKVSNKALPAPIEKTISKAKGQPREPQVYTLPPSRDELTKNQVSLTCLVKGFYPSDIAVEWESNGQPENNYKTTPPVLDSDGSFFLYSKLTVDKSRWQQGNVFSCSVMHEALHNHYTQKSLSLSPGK
# light: B4 light
# notes: also called LALAGA-IgG1; FCV-2
# B6: Anti-CD3 human IgG1 antibody, GADAPASK Fc variant (G237A/D265A/P329A/S267K) (antibody)
# heavy: EVQLVESGGGLVQPGGSLKLSCAASGFTFNTYAMNWVRQASGKGLEWVGRIRSKYNNYATYYADSVKDRFTISRDDSKSTLYLQMNSLKTEDTAVYYCVRHGNFGNSYVSWFAYWGQGTLVTVSSASTKGPSVFPLAPSSKSTSGGTAALGCLVKDYFPEPVTVSWNSGALTSGVHTFPAVLQSSGLYSLSSVVTVPSSSLGTQTYICNVNHKPSNTKVDKRVEPKSCDKTHTCPPCPAPELLGAPSVFLFPPKPKDTLMISRTPEVTCVVVAVKHEDPEVKFNWYVDGVEVHNAKTKPREEQYNSTYRVVSVLTVLHQDWLNGKEYKCKVSNKALAAPIEKTISKAKGQPREPQVYTLPPSRDELTKNQVSLTCLVKGFYPSDIAVEWESNGQPENNYKTTPPVLDSDGSFFLYSKLTVDKSRWQQGNVFSCSVMHEALHNHYTQKSLSLSPGK
# light: B4 light
# notes: also called FCV-7
# B7: Anti-CD3 human IgG1 antibody, GADAPA Fc variant (G237A/D265A/P329A) (antibody)
# heavy: B6 heavy with K275S
# light: B4 light
# notes: also called GADAPA-IgG1; FCV-6
# B8: Anti-CD3 human IgG1 antibody, LALAPA Fc variant (L234A/L235A/P329A) (antibody)
# heavy: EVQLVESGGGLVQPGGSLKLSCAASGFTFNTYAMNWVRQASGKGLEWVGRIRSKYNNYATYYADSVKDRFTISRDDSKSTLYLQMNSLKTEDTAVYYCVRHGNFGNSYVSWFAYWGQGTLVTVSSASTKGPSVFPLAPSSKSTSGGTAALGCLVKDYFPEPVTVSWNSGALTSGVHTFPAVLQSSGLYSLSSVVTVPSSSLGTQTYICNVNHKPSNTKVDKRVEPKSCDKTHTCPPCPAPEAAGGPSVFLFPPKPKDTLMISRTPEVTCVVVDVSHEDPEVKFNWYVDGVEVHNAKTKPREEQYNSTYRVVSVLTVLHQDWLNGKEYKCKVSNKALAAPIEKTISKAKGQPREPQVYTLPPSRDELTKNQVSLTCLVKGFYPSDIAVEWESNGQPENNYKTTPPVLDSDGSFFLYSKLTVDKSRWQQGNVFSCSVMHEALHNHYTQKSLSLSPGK
# light: B4 light
# notes: also called LALAPA-IgG1; FCV-1
# B9: Anti-CD3 human IgG1 antibody, R214K allotype (antibody)
# heavy: not shown
# light: B4 light
# notes: also called WT allotype; WT allotype R214K
# B10: Anti-CD3 human IgG1 antibody, DAPA Fc variant (D265A/P329A) (antibody)
# heavy: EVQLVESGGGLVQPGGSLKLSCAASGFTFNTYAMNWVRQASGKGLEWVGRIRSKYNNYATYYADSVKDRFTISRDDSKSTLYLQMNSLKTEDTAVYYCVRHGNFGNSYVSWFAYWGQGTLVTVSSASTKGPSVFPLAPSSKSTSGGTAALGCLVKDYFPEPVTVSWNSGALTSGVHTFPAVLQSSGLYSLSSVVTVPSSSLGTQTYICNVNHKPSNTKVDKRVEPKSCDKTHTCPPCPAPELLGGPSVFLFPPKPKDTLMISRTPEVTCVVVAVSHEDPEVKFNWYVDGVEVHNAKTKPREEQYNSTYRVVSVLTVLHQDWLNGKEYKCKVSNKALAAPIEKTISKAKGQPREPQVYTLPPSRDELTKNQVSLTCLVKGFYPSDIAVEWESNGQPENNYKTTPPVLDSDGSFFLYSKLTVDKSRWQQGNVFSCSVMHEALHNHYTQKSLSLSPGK
# light: B4 light
# notes: also called DAPA-IgG1; FCV-8
# B11: Anti-CD3 human IgG1 antibody, LALAPG Fc variant (L234A/L235A/P329G) (antibody)
# heavy: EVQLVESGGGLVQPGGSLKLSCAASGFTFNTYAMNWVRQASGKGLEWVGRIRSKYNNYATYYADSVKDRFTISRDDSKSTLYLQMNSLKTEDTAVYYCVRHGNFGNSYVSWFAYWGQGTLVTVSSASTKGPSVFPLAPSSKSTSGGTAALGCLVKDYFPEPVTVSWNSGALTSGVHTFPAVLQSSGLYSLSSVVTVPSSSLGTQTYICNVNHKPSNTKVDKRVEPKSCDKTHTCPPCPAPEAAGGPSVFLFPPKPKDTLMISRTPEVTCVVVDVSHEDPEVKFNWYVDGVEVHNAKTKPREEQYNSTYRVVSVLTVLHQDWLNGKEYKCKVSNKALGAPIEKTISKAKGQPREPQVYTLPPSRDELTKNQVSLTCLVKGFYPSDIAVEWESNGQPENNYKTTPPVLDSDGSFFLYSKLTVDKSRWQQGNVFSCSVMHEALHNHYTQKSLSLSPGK
# light: B4 light
# notes: also called LALAPG-IgG1; FCV-3
# B12: Anti-CD3 human IgG1 antibody, DANAPA Fc variant (D265A/N297A/P329A) (antibody)
# heavy: B6 heavy with A245G, K275S, N305A
# light: B4 light
# notes: Variant made by PCR mutagenesis of the anti-CD3 WT IgG1 heavy chain; also called DANAPA-IgG1; FCV-9
# B13: Anti-CD3 human IgG1 antibody, DAPASK Fc variant (D265A/P329A/S267K) (antibody)
# heavy: B6 heavy with A245G
# light: B4 light
# notes: also called DAPASK-IgG1; FCV-5
# B14: Anti-CD3 human IgG1 antibody, LALASKPA Fc variant (L234A/L235A/S267K/P329A) (antibody)
# heavy: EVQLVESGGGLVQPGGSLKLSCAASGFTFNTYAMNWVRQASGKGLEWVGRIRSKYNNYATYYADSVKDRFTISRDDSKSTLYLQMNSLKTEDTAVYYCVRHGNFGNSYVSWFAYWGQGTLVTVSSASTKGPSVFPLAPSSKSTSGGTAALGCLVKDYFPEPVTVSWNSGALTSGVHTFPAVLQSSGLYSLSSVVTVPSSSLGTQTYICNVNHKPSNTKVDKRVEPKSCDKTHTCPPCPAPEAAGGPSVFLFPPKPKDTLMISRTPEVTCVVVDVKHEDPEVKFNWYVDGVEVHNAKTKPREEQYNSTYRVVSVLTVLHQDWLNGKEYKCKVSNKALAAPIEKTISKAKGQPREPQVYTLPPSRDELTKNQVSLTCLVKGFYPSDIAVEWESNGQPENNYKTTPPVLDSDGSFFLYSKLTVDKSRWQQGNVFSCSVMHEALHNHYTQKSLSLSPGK
# light: B4 light
# notes: also called FCV-4
# B15: NEG258 (antibody, V domains shown)
# VH: QVQLVQSGAEVKKPGASVKVSCKASGYTFTTYWIQWVRQAPGQRLEWMGAVYPGDADTRYTQKFQGRVTLTADRSASTAYMELSSLRSEDTAVYYCGRDAGLEYYALDYWGQGTLVTVSS
# VL: EIVMTQSPATLSVSPGERATLSCRASQDVGTAVAWYQQKPGQAPRLLIYWASTRHTGIPARFSGSGSGTEFTLTISSLQSEDFAVYFCQQYANFPLYTFGQGTKLEIK
# notes: also called CD19 antibody NEG258; anti-CD19 antibody NEG258
# Molecular target: T2, human Fc gamma receptor 1A (human, UniProt P12314 16-288, limits assumed)
# T2 construct: also called hFcgammaRIA; hFcγRIA
# T2 sequence (P12314 16-288 limits assumed): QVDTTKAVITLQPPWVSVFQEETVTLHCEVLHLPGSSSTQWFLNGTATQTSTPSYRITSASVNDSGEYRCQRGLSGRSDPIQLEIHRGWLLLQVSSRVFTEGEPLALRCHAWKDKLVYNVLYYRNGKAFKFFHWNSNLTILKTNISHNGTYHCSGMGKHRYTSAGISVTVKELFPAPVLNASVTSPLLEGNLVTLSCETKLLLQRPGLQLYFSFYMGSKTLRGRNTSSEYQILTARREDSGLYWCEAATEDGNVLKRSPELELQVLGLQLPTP
# Assay: SPR (Biacore T200), antibody amine-coupled on CM5 chip, human FcγRIA as analyte; maximum response (RU)
# Procedure: Surface plasmon resonance was conducted using a Biacore T200 to assess binding affinity of antibody WT and variants to human FcγR1A.
# The antibodies were covalently immobilized on a CM5 sensor chip whereas Fc gamma receptor 1A served as analyte in solution (FIG. 38). Antibodies were diluted in 10 mM sodium acetate pH 4 and immobilized at a density of approximately 950 resonance units (RU) on the CM5 sensor chip applying a standard amine coupling procedure. Flow cell 1 was blank immobilized to serve as a reference. The kinetic binding data were collected by subsequent injections of 1:2 dilution series of the human Fc gamma receptor 1A on all flow cells at a flow rate of 30 μl/min and at a temperature of 25° C. […] The chip surface was regenerated using 20 mM glycine pH 2.0 solution after each measuring cycle. Zero concentration samples (blank runs) were measured to allow double-referencing during data evaluation.
# Data were evaluated using the Biacore T200 evaluation software. The raw data were double referenced, i.e. the response of the measuring flow cell was corrected for the response of the reference flow cell, and in a second step the response of a blank injection was subtracted. Then the sensorgrams were fitted by applying a 1:1 kinetic binding model to calculate dissociation equilibrium constants. In addition, the maximum response reached during the experiment was monitored. Maximum response describes the binding capacity of the surface in terms of the response at saturation.
row,Binder,binding result
1,B1,no binding (tested: 25 nM)
2,B2,no binding (tested: 25 nM)
3,B3,no binding (tested: 25 nM)

# Molecular target: T3, human C1q (human, UniProt P02745 23-245; P02746 28-253; P02747 29-245)
# T3 construct: also called hC1q
# T3 sequence (P02745 23-245 limits assumed, chain 1 of 3): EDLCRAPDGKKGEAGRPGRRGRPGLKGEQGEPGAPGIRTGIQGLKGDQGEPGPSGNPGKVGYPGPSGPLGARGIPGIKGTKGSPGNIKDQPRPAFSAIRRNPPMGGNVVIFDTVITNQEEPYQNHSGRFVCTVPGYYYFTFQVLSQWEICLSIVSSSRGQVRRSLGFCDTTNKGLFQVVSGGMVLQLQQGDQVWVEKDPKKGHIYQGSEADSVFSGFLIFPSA
# T3 sequence (P02746 28-253 limits assumed, chain 2 of 3): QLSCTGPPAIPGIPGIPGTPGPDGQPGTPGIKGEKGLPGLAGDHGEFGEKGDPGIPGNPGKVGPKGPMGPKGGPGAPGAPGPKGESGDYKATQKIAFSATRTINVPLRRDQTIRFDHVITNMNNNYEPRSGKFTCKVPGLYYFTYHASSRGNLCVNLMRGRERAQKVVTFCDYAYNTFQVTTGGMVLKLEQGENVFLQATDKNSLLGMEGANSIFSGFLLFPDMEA
# T3 sequence (P02747 29-245 limits assumed, chain 3 of 3): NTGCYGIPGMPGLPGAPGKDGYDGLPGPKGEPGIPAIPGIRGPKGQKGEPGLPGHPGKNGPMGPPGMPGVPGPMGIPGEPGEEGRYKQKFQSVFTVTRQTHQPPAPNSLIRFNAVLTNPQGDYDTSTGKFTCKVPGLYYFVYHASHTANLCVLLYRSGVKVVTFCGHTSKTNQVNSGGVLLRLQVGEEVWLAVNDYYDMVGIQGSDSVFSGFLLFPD
# Assay: SPR (Biacore T200), antibody amine-coupled on CM5 chip, C1q as analyte
# Procedure: (§1) Binding to human C1q was evaluated. All SPR buffers were prepared using deionized water. The samples were prepared in running buffer PBS pH 7.4 with 0.005% Tween-20. SPR measurements were measured on a Biacore T200 (GE-Healthcare Life Sciences) controlled by Biacore T200 control software version 2.0.1. Surface plasmon resonance was conducted using a Biacore T200 to assess binding affinity of antibody IgG1 WT and variants to human Fc receptors, including FcγR1A, and FcγR3A (V158) and human C1q.
# (§2) The antibodies were covalently immobilized on a CM5 sensor chip whereas Fc gamma receptors or human C1q served as analytes in solution (FIG. 38). For Fc gamma receptors binding evaluation (method 1), antibodies were diluted in 10 mM sodium acetate pH 4 and immobilized at a density of approximately 950 resonance units (RU's) on the CM5 sensor chip applying a standard amine coupling procedure. Flow cell 1 was blank immobilized to serve as a reference. The kinetic binding data were collected by subsequent injections of 1:2 dilution series of the human Fc gamma receptors on all flow cells at a flow rate of 30 μl/min and at a temperature of 25° C. The Fc gamma receptors were diluted in the running buffer at concentrations ranging from 0.2 nM to 1000 nM (e.g. FcγR1A: 0.2 to 100 nM, FcγR3A V158: 1.95 to 1000 nM). The chip surface was regenerated using 20 mM glycine pH 2.0 solution after each measuring cycle. For human C1q binding evaluation (method 2), antibodies were diluted in 10 mM sodium acetate pH 4 and immobilized at a density of approximately 7000 resonance units (RU's) on the CM5 sensor chip applying a standard amine coupling procedure. Flow cell 1 was blank immobilized to serve as a reference. The kinetic binding data were collected by subsequent injections of 1:2 dilution series of the human C1q on all flow cells at a flow rate of 30 μl/min and at a temperature of 25° C. The human C1q was diluted in the running buffer at concentrations ranging from 0.49 nM to 250 nM. The chip surface was regenerated using 50 mM NaOH solution after each measuring cycle. Zero concentration samples (blank runs) were measured for both methods to allow double-referencing during data evaluation.
# (§3) Data were evaluated using the Biacore T200 evaluation software.
row,Binder,Maximum response at 250 nM hC1q (RU)
1,B4,680
2,B5,335
3,B6,168
4,B7,203
5,B8,270
6,B9,640
7,B10,85
8,B11,245
9,B12,29
10,B13,86
11,B14,95

# Molecular target: T1, human CD19
# Assay: summary sentence of the examples; no method at this place
row,Binder,binding result
1,B15,binds

# Molecular target: T4, human Fc gamma receptor 3A, V158 variant (human, UniProt P08637 17-208)
# T4 construct: also called hFcgammaRIIIA V158; FcγR3A (V158)
# T4 sequence (P08637 other isoform, or with tags, fused parts or gaps mutant): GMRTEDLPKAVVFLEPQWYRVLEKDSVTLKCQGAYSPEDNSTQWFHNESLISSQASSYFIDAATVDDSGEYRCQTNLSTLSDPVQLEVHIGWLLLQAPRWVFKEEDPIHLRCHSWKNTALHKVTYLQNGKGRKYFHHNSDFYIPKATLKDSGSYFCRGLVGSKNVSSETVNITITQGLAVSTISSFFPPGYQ
# Assay: SPR (Biacore T200), antibody amine-coupled on CM5 chip, receptor as analyte
# Procedure: as §1, §2, §3
row,Binder,Maximum response at 1000 nM hFcgammaRIIIA V158 (RU)
1,B4,79
2,B5,25
3,B6,12
4,B7,9
5,B8,19
6,B9,72
7,B10,15
8,B11,33
9,B12,31
10,B13,15
11,B14,20

# Molecular target: T2, human Fc gamma receptor 1A
# Assay: as above
# Procedure: as §1, §2, §3
row,Binder,Maximum response at 100 nM hFcgammaRIA (RU)
1,B4,193
2,B8,26
3,B9,193
4,B10,63
